From patent US20230332136A1, “IL-17 RECEPTOR MODULATOR SCREENING SYSTEM” (New York University, priority 2022, published 2023) come the findings set out here.

The target in assay [1] is T1, IL-17RA/RC (Mus musculus, UniProt Q60943+Q8K4C2).
T1 construct: Full length IL-17RC in the purified ADIR system; expressed in transfected cells; host or cells: mouse embryonic fibroblasts (MEF), retrovirally transduced
T1 sequence (Q60943 32-864): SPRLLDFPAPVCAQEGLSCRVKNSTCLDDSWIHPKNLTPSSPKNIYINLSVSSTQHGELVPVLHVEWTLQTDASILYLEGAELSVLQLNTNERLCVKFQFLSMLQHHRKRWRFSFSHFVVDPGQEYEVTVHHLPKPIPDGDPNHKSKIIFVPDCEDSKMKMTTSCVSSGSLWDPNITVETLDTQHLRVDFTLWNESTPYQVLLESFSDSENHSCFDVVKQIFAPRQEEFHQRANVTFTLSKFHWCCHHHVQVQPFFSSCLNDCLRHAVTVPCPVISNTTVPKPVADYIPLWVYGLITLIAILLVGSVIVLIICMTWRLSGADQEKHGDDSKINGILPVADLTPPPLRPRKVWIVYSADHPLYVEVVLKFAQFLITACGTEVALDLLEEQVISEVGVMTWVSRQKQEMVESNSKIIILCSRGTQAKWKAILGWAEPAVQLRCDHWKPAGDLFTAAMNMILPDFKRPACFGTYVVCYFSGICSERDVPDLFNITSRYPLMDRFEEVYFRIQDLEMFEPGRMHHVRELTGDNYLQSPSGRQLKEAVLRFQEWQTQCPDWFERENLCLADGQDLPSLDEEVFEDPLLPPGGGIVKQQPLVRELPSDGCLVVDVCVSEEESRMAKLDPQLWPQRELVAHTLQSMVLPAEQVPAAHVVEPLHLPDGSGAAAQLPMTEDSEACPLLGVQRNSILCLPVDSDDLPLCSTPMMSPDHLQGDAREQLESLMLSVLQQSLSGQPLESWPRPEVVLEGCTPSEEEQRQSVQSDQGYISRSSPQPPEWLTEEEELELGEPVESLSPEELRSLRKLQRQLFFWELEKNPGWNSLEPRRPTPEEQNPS
T1 sequence (Q8K4C2 22-698): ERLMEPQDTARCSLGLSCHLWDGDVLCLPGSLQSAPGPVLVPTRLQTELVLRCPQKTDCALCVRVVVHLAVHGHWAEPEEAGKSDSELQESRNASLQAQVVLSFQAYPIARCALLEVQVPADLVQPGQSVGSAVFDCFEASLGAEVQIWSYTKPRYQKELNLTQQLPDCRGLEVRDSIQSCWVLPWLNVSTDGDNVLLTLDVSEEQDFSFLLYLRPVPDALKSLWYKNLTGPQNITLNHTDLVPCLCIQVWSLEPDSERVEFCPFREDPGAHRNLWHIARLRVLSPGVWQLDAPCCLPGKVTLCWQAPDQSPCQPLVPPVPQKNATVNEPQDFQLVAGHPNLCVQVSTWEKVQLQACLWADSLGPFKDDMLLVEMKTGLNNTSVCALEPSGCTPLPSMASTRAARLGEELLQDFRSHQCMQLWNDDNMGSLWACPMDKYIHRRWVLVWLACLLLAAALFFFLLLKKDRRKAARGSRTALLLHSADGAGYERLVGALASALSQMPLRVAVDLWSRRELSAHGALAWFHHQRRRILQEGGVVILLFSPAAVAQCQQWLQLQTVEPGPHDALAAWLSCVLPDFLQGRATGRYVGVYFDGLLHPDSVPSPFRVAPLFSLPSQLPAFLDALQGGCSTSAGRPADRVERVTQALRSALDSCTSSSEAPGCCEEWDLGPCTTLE
In words: mADIR-17 dmCherry reporter assay in MEF cells (flow cytometry). Format: cell-based. From the text:
Unless defined otherwise herein, all technical and scientific terms used in this disclosure have the same meaning as commonly understood by one of ordinary skill in the art to which this disclosure pertains. Where the term “ADIR” is used herein it means ACT1-Dependent IL-17 Receptor Modulator Screening System. The preface “m” means mouse and the prefix “h” means human.
Mouse constructs were produced as depicted in the panels of FIG. 1. Human sequence constructs were produced as in the panels of FIG. 9, where mouse cDNA constructs were replaced by human cDNA constructed. In the mouse ADIR system exogenous IL-17RC was not provided because the cell line (mouse embryonic fibroblasts) have endogenous IL-17RC expression. In the hADIR system, human components used for the hADIR system (hRA, hRC, hRB, hAct1) were expressed from added polynucleotides.
The data reflected in the Figures utilized a reporter system specifically designed for Act1-dependent IL-17 signaling pathways. The reporter system is based at least in part on the principle that the engagement of active cognate ligands, and the interaction between Act1 and IL-17 receptors is required for active signaling of IL-17A/F, IL-17E, and IL-17C. The protein-protein-interaction (PPI) based reporter system is highly specific and easily scalable. The disclosure is illustrated using mouse and human systems. For the data presented in the Figures, the system comprised a three-part reporter system specifically designed for detecting IL-17A/F, IL-17E, and IL-17C signaling. The PPI-based reporter system provides for detecting active signaling, and is specific for each of the IL-17 family cytokines. The system that is responsive to binding of IL-17A and IL-17F comprises (1) an Act1-tobacco etch virus (TEV) protease fusion protein, which upon active IL-17A/F binding to the IL-17RA/RC receptor heterodimer on a target cell, will be recruited to (2) IL-17RC fused with a TEV cleavage site(TSC)-tTA (a transcriptional transactivator that binds to tetracycline responsive element, or TRE), releasing tTA, which will subsequently translocate into the nucleus where a (3) TRE-dmCherry-PEST (destabilized mCherry) element is integrated into the genome. tTA binds to the TRE to drive dmCherry expression in the target modified cell. The three described components, Act1-TEV, IL-17RC-TSC-tTA, and TRE-dmCherry-PEST, along with IL-17RA, can be delivered by retro or lenti-viral vectors or guide-RNA directed nucleases, or recombinase systems, or by homologous recombination, into mouse embryonic fibroblasts (MEF) or other mammalian cell lines, establishing stable reporter cell lines. Using the same principle, IL-17RC-TSC-tTA can be replaced with IL-17RB-TSC-tTA in the described system to provide for IL-17E (IL-25) binding, and with IL-17RE-TSC-tTA for detecting IL-17C binding. A parallel approach involves attaching the fusion protein of —TSC-tTA to the RA component and three independent system cell lines generated by supplementing RC/RB/RE, Act1-TEV, and TRE-dmCherry reporter components. Each of the retroviral vectors can contain a unique selection or fluorescent marker to enable efficient generation and maintenance of stable cell lines (for example, Puromycin resistance for m/hIL-17RC(RB, RE)-TSC-tTA; EBFP for m/hAct1-TEV; Neomycin resistance and mVenus fluorescence for TRE-dmCherry-PEST, and Thy1.1 for m/hRA).
For orientation: Reporter assays use an easily measured gene product as a stand-in for the process of interest.

Assay [2] concerns IL-6. In words: IL-17A titration for activation of endogenous target gene IL-6 in MEF cells. The format is cell-based, mouse. The note with it: IL-17A titration (FIG. 3B). From the text:
FIGS. 3A and 3B provide construct schematics (designed for mouse genes), and cartoon depictions of the proteins encoded by the constructs, and a graph illustrating IL-17A titrations for activation of an endogenous target gene (IL-6) in MEF cells. […] FIG. 3A: schematics of functional units of the retroviral transfer plasmid constructs used to build the mouse ADIR system.

B1: IL-17A: mouse IL-17 family cytokine, cognate ligand of IL-17RA/RC, used as agonist in the mADIR-17 system (protein, UniProt Q62386 26-158, looked up)
Interleukin-17A: AAIIPQSSACPNTEAKDFLQNVKVNLKVFNSLGAKVSSRRPSDYLNRSTSPWTLHRNEDPDRYPSVIWEAQCRHQRCVNAEGKLDHHMNSVLIQQEILVLKREPESCPFTFRVEKMLVGVGCTCVASIVRQAA
In the case of B1, the dmCherry signal produced is on record as 5.75% in assay [1] (0.4 ng/ml, after 24 hrs (FIG. 7)); 24.6% in assay [1] (2 ng/ml, after 24 hrs (FIG. 7)); 43.6% in assay [1] (10 ng/ml, after 24 hrs (FIG. 7)); 55.1% in assay [1] (50 ng/ml, after 24 hrs (FIG. 7)); 25% in assay [1] (100 ng/ml, after 24 hrs (FIG. 6I)); 24.5% in assay [1] (100/2 ng/ml, after 24 hrs (FIG. 6H)). For the same molecule, the dmCherry signal produced in assay [1] (100/(2^2) ng/ml, after 24 hrs (FIG. 6G)) stood at 21.9%; in assay [1] (100/(2^3) ng/ml, after 24 hrs (FIG. 6F)), 19.9%; in assay [1] (100/(2^5) ng/ml, after 24 hrs (FIG. 6D)) it was 12.6%; in assay [1] (100/(2^6) ng/ml, after 24 hrs (FIG. 6C)) it was 8.69%; in assay [1] (100/(2′7) ng/ml, after 24 hrs (FIG. 6B)) it was 5.36%. Also, in assay [1] (50 ng/ml, 24 hr after plating (FIG. 5B)), the “cells turning on dmCherry signal” value is on record as 27.2%. In assay [1] (100/(2^4) ng/ml, after 24 hrs (FIG. 6E)), the dmCherry produced came to 17.6%. Moreover, the “EC50 (sensitivity, dose-dependent dmCherry response)” value in assay [1] (mIL-17A/F system, three parameter [Agonist] vs. response fit (FIG. 6J)) turned out to be 3.556 ng/mL. In assay [2], the “activation of endogenous target gene (IL-6)” value is reported as “upregulation of IL-6”.
